The source of these data is patent US11306156.

Assay [1] has as its target tissue factor (TF) antigen (UniProt P13726). Put plainly: SPR; Fab captured by anti-His, TF as analyte; LCCA set 9823. A general note: SPR reads the build-up and loss of mass on a sensor chip optically.
Assay [2] has the same target. Put plainly: SPR; Fab captured by anti-His, TF as analyte; LCCA set 9819.
In assay [3] the target is D3H44 light chain Q124E_S131T_T178F_T180E (Kabat) with N-terminal HA or FLAG tag. Put plainly: LCCA, SPR read-out of light-chain tags; light-chain DNA 1:3 normalized to 1:1; competing light chain m21.
The target in assay [4] is D3H44 light chain Q124R_T178R (Kabat) with N-terminal HA or FLAG tag. Put plainly: LCCA, SPR read-out of light-chain tags; light-chain DNA 1:3 normalized to 1:1; competing light chain m22.
In assay [5] the target is D3H44 light chain Q124E_Q160E_T180E (Kabat) with N-terminal HA or FLAG tag. Put plainly: LCCA, SPR read-out of light-chain tags; light-chain DNA 1:3 normalized to 1:1; competing light chain m26.
In assay [6] the target is D3H44 light chain Q124E_T180E (Kabat) with N-terminal HA or FLAG tag. Put plainly: LCCA, SPR read-out of light-chain tags; light-chain DNA 1:3 normalized to 1:1; competing light chain m18.
Assay [7] addresses D3H44 light chain Q124E_Q160E_T180E (Kabat) with N-terminal HA or FLAG tag. The description is as above.
Assay [8] concerns the target D3H44 light chain Q124R_T178K (Kabat) with N-terminal HA or FLAG tag. Put plainly: LCCA, SPR read-out of light-chain tags; light-chain DNA 1:3 normalized to 1:1; competing light chain m17.
Assay [9] deals with D3H44 light chain Q124K_T178R (Kabat) with N-terminal HA or FLAG tag. The assay is described as above.
Assay [10] addresses D3H44 light chain T178R (Kabat) with N-terminal HA or FLAG tag. The assay is described as above.
Assay [11] concerns the target D3H44 light chain Q124R_Q160K_T178R (Kabat) with N-terminal HA or FLAG tag. Described as above.
The target of assay [12] is D3H44 light chain Q124E_Q160E_T180E (Kabat) with N-terminal HA or FLAG tag. Put plainly: LCCA, SPR read-out of light-chain tags; light-chain DNA 1:3 normalized to 1:1; competing light chain m20.
Assay [13] has the same target. Put plainly: LCCA, SPR read-out of light-chain tags; light-chain DNA 1:3 normalized to 1:1; competing light chain m16.
Assay [14] has as its target D3H44 light chain T178R (Kabat) with N-terminal HA or FLAG tag. Put plainly: LCCA, SPR read-out of light-chain tags; light-chain DNA 1:3 normalized to 1:1; competing light chain m19.
Assay [15] concerns the target D3H44 light chain Q124E_V133E_Q160F (Kabat) with N-terminal HA or FLAG tag. Put plainly: LCCA, SPR read-out of light-chain tags; light-chain DNA 1:3 normalized to 1:1; competing light chain m23.
Assay [16] addresses D3H44 light chain Q124R (Kabat) with N-terminal HA or FLAG tag. Put plainly: LCCA, SPR read-out of light-chain tags; light-chain DNA 1:3 normalized to 1:1; competing light chain m24.
The target of assay [17] is D3H44 light chain Q124E_Q160E_T180E (Kabat) with N-terminal HA or FLAG tag. Put plainly: LCCA, SPR read-out of light-chain tags; light-chain DNA 1:3 normalized to 1:1; competing light chain m21.
The target is the same in assay [18]. Put plainly: LCCA, SPR read-out of light-chain tags; light-chain DNA 1:9 normalized to 1:1; competing light chain m21.
The target of assay [19] is D3H44 light chain Q124R_T178R (Kabat) with N-terminal HA or FLAG tag. Put plainly: LCCA, SPR read-out of light-chain tags; light-chain DNA 1:9 normalized to 1:1; competing light chain m17.
Assay [20] has the same target. Put plainly: LCCA, SPR read-out of light-chain tags; light-chain DNA 1:3 normalized to 1:1; competing light chain m17.
For assay [21], the target named is D3H44 light chain Q124E_S176L_T180E (Kabat) with N-terminal HA or FLAG tag. Put plainly: LCCA, SPR read-out of light-chain tags; light-chain DNA 1:3 normalized to 1:1; competing light chain m20.
Assay [22] concerns the target D3H44 light chain Q124E_S131T_T178Y_T180E (Kabat) with N-terminal HA or FLAG tag. The assay is described as above.
Assay [23] concerns the target D3H44 light chain Q124E_S131T_T178F_T180E (Kabat) with N-terminal HA or FLAG tag. The assay is described as above.
The target in assay [24] is D3H44 light chain Q124R_Q160K_T178R (Kabat) with N-terminal HA or FLAG tag. Put plainly: LCCA, SPR read-out of light-chain tags; light-chain DNA 1:3 normalized to 1:1; competing light chain m22.
For assay [25] the target is unchanged. Put plainly: LCCA, SPR read-out of light-chain tags; light-chain DNA 1:3 normalized to 1:1; competing light chain m29.
For assay [26] the target is unchanged. Put plainly: LCCA, SPR read-out of light-chain tags; light-chain DNA 1:3 normalized to 1:1; competing light chain m28.
The target in assay [27] is tissue factor (TF) antigen (UniProt P13726). Put plainly: SPR; Fab captured by anti-His, TF as analyte; LCCA set 9822.
For assay [28] the target is unchanged. Put plainly: SPR (ProteOn), Fab captured on anti-penta-His, TF as analyte, 1:1 fit; estimated value (*) taken from the same Fab with another L chain tag.
Assay [29] has the same target. Put plainly: SPR (ProteOn), Fab captured on anti-penta-His, TF as analyte, 1:1 fit.
Assay [30] has the same target. Put plainly: SPR; Fab captured by anti-His, TF as analyte; LCCA set 9820.

Where “and” joins values, the source holds several entries; their conditions need not be identical. Equal values may be shown once.

For “D3H44 Fab heterodimer, H Q39R_H172R_Q179K / L Q38E_Q124E_Q160E_T180E (H1L1 Fab of LCCA set 9823)”, in [1], the Change in KD with respect to wild type (-(log(KD design) - log(KD wt))) is -0.18 and the Kd (commonly the constant that tells how readily two partners part at equilibrium) stood at 0.24 nM.
With “D3H44 Fab heterodimer, H Q39E_L143E_K145T_H172R_Q179E / L Q38R_Q124R_Q160K_T178R (H1L1 Fab of LCCA set 9819)”, in [2], the Change in KD with respect to wild type (-(log(KD design) - log(KD wt))) was found to be 0.03 and the Kd came out at 0.15 nM.
Take “D3H44 Fab heavy chain L143E_K145T_Q179E_S188L (Kabat) with C-terminal ABD2-His6 tag”: in assay [3], the H1L1:H1L2 normalized median ratio amounted to 23%. Also, in assay [4], the H1L1:H1L2 normalized median ratio stood at 77% and the H1L1:H1L2 normalized median scalar value ln(r1/f1) was determined as 1.19.
Consider “D3H44 Fab heavy chain L143E_K145T_Q179E (Kabat) with C-terminal ABD2-His6 tag”, for which the H1L1:H1L2 normalized median ratio in assay [5] came to 17%; in assay [6], 40%; in assay [7], 11%; in assay [8], 83%; in assay [9], 88%; in [10] it was 89%. The H1L1:H1L2 normalized median ratio in [11] is 84%; in assay [12] it was 16%; in assay [13], 12% and 17%; in assay [14], 60%. For the same substance, the H1L1:H1L2 normalized median scalar value ln(r1/f1) was 1.62 in [8]; 2 in assay [9]; 2.14 in [10]; 1.65 in [11]; 0.41 in assay [14].
Regarding “D3H44 Fab heavy chain L143R (Kabat) with C-terminal ABD2-His6 tag”, the results for the H2L2:H2L1 normalized median ratio in [15] and in assay [16] were 83% and 17%, respectively.
Consider “D3H44 Fab heavy chain L143E_K145T_Q179D (Kabat) with C-terminal ABD2-His6 tag”, for which the H1L1:H1L2 normalized median ratio in [17] amounted to 13%; in assay [18], 18%; in assay [19], 82%; in [7], 24%; in [9], 86%; in assay [10], 76%. Moreover, the H1L1:H1L2 normalized median ratio in [11] stood at 84%; in assay [20] it was 87%; in [12] it was 16%; in assay [13], 14%. Further, the H1L1:H1L2 normalized median scalar value ln(r1/f1) came out at 1.55 in [19]; 1.78 in [9]; 1.13 in assay [10]; 1.68 in assay [11]; 1.9 in assay [20].
Turning to “D3H44 Fab heavy chain L143E_K145T_S188L (Kabat) with C-terminal ABD2-His6 tag”, the H1L1:H1L2 normalized median ratio was found to be 43% in assay [21]; 26% in assay [22]; 41% in assay [23]; 59% in assay [24]; 74% in assay [25]; 57% in assay [26]. For the same substance, the figures for the H1L1:H1L2 normalized median scalar value ln(r1/f1) in [24], in [25] and in [26] were 0.37, 1.03 and 0.28, respectively.
Turning to “D3H44 Fab heterodimer, H Q39R_D146G_Q179K / L Q38E_Q124E_Q160E_T180E (H1L1 Fab of LCCA set 9822)”, in assay [27], the Change in KD with respect to wild type (-(log(KD design) - log(KD wt))) was 0.17 and the Kd came to 0.11 nM.
Consider “D3H44 Fab heterodimer, H L143E_K145T_S188L / L Q124R”, for which, in [28], the Change in KD with respect to wild type (-(log(KD design) - log(KD wt))) was -0.12 and the Kd is 0.21 nM. For the same substance, in assay [29], the Change in KD with respect to wild type (-(log(KD design) - log(KD wt))) is -0.12 and the Kd came out at 0.21 nM.
As to “D3H44 Fab heterodimer, H Q39E_L143E_K145T_Q179E / L Q38R_Q124R_Q160K_T178R (H1L1 Fab of LCCA set 9820)”, in assay [30], the Change in KD with respect to wild type (-(log(KD design) - log(KD wt))) is -0.1 and the Kd was 0.2 nM.
